Results taken from the supplement of paper PMC12458215.
± gives the uncertainty stated by the source.

These sequences were tested on HEK293T (assay: plasma membrane surface immunostaining intensity (anti-HA, deep receptor scanning) (arbitrary fluorescence units); higher = higher plasma membrane expression). Conditions: GPCR class: A.
In the case of “MTAAIRRQRELSILPKVTLEAMNTTVMQGFNRSERCPRDTRIVQLVFPALYTVVFLTGILLNTLALWVFVHIPSSSTFIIYLKNTLVADLIMTLMLPFKILSDSHLAPWQLRAFVCRFSSVIFYETMYVGIVLLGLIAFDRFLKIIRPLRNIFLKKPVFAKTVSIFIWFFLFFISLPNTILSNKEATPSSVKKCASLKGPLGLKWHQMVNNICQFIFWTVFILMLVFYVVIAKKVYDSYRKSKSKDRKNNKKLEGKVFVVVAVFFVCFAPFHFARVPYTHSQTNNKTDCRLQNQLFIAKETTLFLAATNICMDPLIYIFLCKKFTEKLPCMQGRKTTASSQENHSSQTDNITLG [P2RY13]”, the “plasma membrane surface immunostaining intensity” value is reported as 239 ± 12. In the case of “MTFRDLLSVSFEGPRPDSSAGGSSAGGGGGSAGGAAPSEGPAVGGVPGGAGGGGGVVGAGSGEDNRSSAGEPGSAGAGGDVNGTAAVGGLVVSAQGVGVGVFLAAFILMAVAGNLLVILSVACNRHLQTVTNYFIVNLAVADLLLSATVLPFSATMEVLGFWAFGRAFCDVWAAVDVLCCTASILSLCTISVDRYVGVRHSLKYPAIMTERKAAAILALLWVVALVVSVGPLLGWKEPVPPDERFCGITEEAGYAVFSSVCSFYLPMAVIVVMYCRVYVVARSTTRSLEAGVKRERGKASEVVLRIHCRGAATGADGAHGMRSAKGHTFRSSLSVRLLKFSREKKAAKTLAIVVGVFVLCWFPFFFVLPLGSLFPQLKPSEGVFKVIFWLGYFNSCVNPLIYPCSSREFKRAFLRLLRCQCRRRRRRRPLWRVYGHHWRASTSGLRQDCAPSSGDAPPGAPLALTALPDPDPEPPGTPEMQAPVASRRKPPSAFREWRLLGPFRRPTTQLRAKVSSLSHKIRAGGAQRAEAACAQRSEVEAVSLGVPHEVAEGATCQAYELADYSNLRETDI [ADRA1D]”, the “plasma membrane surface immunostaining intensity” value is reported as 125 ± 25. With “MTNSSFFCPVYKDLEPFTYFFYLVFLVGIIGSCFATWAFIQKNTNHRCVSIYLINLLTADFLLTLALPVKIVVDLGVAPWKLKIFHCQVTACLIYINMYLSIIFLAFVSIDRCLQLTHSCKIYRIQEPGFAKMISTVVWLMVLLIMVPNMMIPIKDIKEKSNVGCMEFKKEFGRNWHLLTNFICVAIFLNFSAIILISNCLVIRQLYRNKDNENYPNVKKALINILLVTTGYIICFVPYHIVRIPYTLSQTEVITDCSTRISLFKAKEATLLLAVSNLCFDPILYYHLSKAFRSKVTETFASPKETKAQKEKLRCENNA [GPR171]” the “plasma membrane surface immunostaining intensity” value was 455 ± 49. In the case of “MTPLCLNCSVLPGDLYPGGARNPMACNGSAARGHFDPEDLNLTDEALRLKYLGPQQTELFMPICATYLLIFVVGAVGNGLTCLVILRHKAMRTPTNYYLFSLAVSDLLVLLVGLPLELYEMWHNYPFLLGVGGCYFRTLLFEMVCLASVLNVTALSVERYVAVVHPLQARSMVTRAHVRRVLGAVWGLAMLCSLPNTSLHGIRQLHVPCRGPVPDSAVCMLVRPRALYNMVVQTTALLFFCLPMAIMSVLYLLIGLRLRRERLLLMQEAKGRGSAAARSRYTCRLQQHDRGRRQVTKMLFVLVVVFGICWAPFHADRVMWSVVSQWTDGLHLAFQHVHVISGIFFYLGSAANPVLYSLMSSRFRETFQEALCLGACCHRLRPRHSSHSLSRMTTGSTLCDVGSLGSWVHPLAGNDGPEAQQETDPS [NMUR1]”, the “plasma membrane surface immunostaining intensity” value is reported as 2770 ± 700. In the case of “MTPNSTGEVPSPIPKGALGLSLALASLIITANLLLALGIAWDRRLRSPPAGCFFLSLLLAGLLTGLALPTLPGLWNQSRRGYWSCLLVYLAPNFSFLSLLANLLLVHGERYMAVLRPLQPPGSIRLALLLTWAGPLLFASLPALGWNHWTPGANCSSQAIFPAPYLYLEVYGLLLPAVGAAAFLSVRVLATAHRQLQDICRLERAVCRDEPSALARALTWRQARAQAGAMLLFGLCWGPYVATLLLSVLAYEQRPPLGPGTLLSLLSLGSASAAAVPVAMGLGDQRYTAPWRAAAQRCLQGLWGRASRDSPGPSIAYHPSSQSSVDLDLN [GPBAR1]”, the “plasma membrane surface immunostaining intensity” value is reported as 5940 ± 84. In the case of “MTPTDFTSPIPNMADDYGSESTSSMEDYVNFNFTDFYCEKNNVRQFASHFLPPLYWLVFIVGALGNSLVILVYWYCTRVKTMTDMFLLNLAIADLLFLVTLPFWAIAAADQWKFQTFMCKVVNSMYKMNFYSCVLLIMCISVDRYIAIAQAMRAHTWREKRLLYSKMVCFTIWVLAAALCIPEILYSQIKEESGIAICTMVYPSDESTKLKSAVLTLKVILGFFLPFVVMACCYTIIIHTLIQAKKSSKHKALKVTITVLTVFVLSQFPYNCILLVQTIDAYAMFISNCAVSTNIDICFQVTQTIAFFHSCLNPVLYVFVGERFRRDLVKTLKNLGCISQAQWVSFTRREGSLKLSSMLLETTSGALSL [CCR9]”, the “plasma membrane surface immunostaining intensity” value is reported as 4060 ± 290. In the case of “MTSGSVFFYILIFGKYFSHGGGQDVKCSLGYFPCGNITKCLPQLLHCNGVDDCGNQADEDNCGDNNGWSLQFDKYFASYYKMTSQYPFEAETPECLVGSVPVQCLCQGLELDCDETNLRAVPSVSSNVTAMSLQWNLIRKLPPDCFKNYHDLQKLYLQNNKITSISIYAFRGLNSLTKLYLSHNRITFLKPGVFEDLHRLEWLIIEDNHLSRISPPTFYGLNSLILLVLMNNVLTRLPDKPLCQHMPRLHWLDLEGNHIHNLRNLTFISCSNLTVLVMRKNKINHLNENTFAPLQKLDELDLGSNKIENLPPLIFKDLKELSQLNLSYNPIQKIQANQFDYLVKLKSLSLEGIEISNIQQRMFRPLMNLSHIYFKKFQYCGYAPHVRSCKPNTDGISSLENLLASIIQRVFVWVVSAVTCFGNIFVICMRPYIRSENKLYAMSIISLCCADCLMGIYLFVIGGFDLKFRGEYNKHAQLWMESTHCQLVGSLAILSTEVSVLLLTFLTLEKYICIVYPFRCVRPGKCRTITVLILIWITGFIVAFIPLSNKEFFKNYYGTNGVCFPLHSEDTESIGAQIYSVAIFLGINLAAFIIIVFSYGSMFYSVHQSAITATEIRNQVKKEMILAKRFFFIVFTDALCWIPIFVVKFLSLLQVEIPGTITSWVVIFILPINSALNPILYTLTTRPFKEMIHRFWYNYRQRKSMDSKGQKTYAPSFIWVEMWPLQEMPPELMKPDLFTYPCEMSLISQSTRLNSYS [RXFP1]”, the “plasma membrane surface immunostaining intensity” value is reported as 165 ± 19. “MTSNFSQPVVQLCYEDVNGSCIETPYSPGSRVILYTAFSFGSLLAVFGNLLVMTSVLHFKQLHSPTNFLIASLACADFLVGVTVMLFSMVRTVESCWYFGAKFCTLHSCCDVAFCYSSVLHLCFICIDRYIVVTDPLVYATKFTVSVSGICISVSWILPLTYSGAVFYTGVNDDGLEELVSALNCVGGCQIIVSQGWVLIDFLLFFIPTLVMIILYSKIFLIAKQQAIKIETTSSKVESSSESYKIRVAKRERKAAKTLGVTVLAFVISWLPYTVDILIDAFMGFLTPAYIYEICCWSAYYNSAMNPLIYALFYPWFRKAIKLILSGDVLKASSSTISLFLE [TAAR8]” was tested, and the “plasma membrane surface immunostaining intensity” value was 352 ± 170. “MTSTCTNSTRESNSSHTCMPLSKMPISLAHGIIRSTVLVIFLAASFVGNIVLALVLQRKPQLLQVTNRFIFNLLVTDLLQISLVAPWVVATSVPLFWPLNSHFCTALVSLTHLFAFASVNTIVVVSVDRYLSIIHPLSYPSKMTQRRGYLLLYGTWIVAILQSTPPLYGWGQAAFDERNALCSMIWGASPSYTILSVVSFIVIPLIVMIACYSVVFCAARRQHALLYNVKRHSLEVRVKDCVENEDEEGAEKKEEFQDESEFRRQHEGEVKAKEGRMEAKDGSLKAKEGSTGTSESSVEARGSEEVRESSTVASDGSMEGKEGSTKVEENSMKADKGRTEVNQCSIDLGEDDMEFGEDDINFSEDDVEAVNIPESLPPSRRNSNSNPPLPRCYQCKAAKVIFIIIFSYVLSLGPYCFLAVLAVWVDVETQVPQWVITIIIWLFFLQCCIHPYVYGYMHKTIKKEIQDMLKKFFCKEKPPKEDSHPDLPGTEGGTEGKIVPSYDSATFP [GPR101]” was tested, and the “plasma membrane surface immunostaining intensity” value was 3010 ± 110. In the case of “MTTSLDTVETFGTTSYYDDVGLLCEKADTRALMAQFVPPLYSLVFTVGLLGNVVVVMILIKYRRLRIMTNIYLLNLAISDLLFLVTLPFWIHYVRGHNWVFGHGMCKLLSGFYHTGLYSEIFFIILLTIDRYLAIVHAVFALRARTVTFGVITSIVTWGLAVLAALPEFIFYETEELFEETLCSALYPEDTVYSWRHFHTLRMTIFCLVLPLLVMAICYTGIIKTLLRCPSKKKYKAIRLIFVIMAVFFIFWTPYNVAILLSSYQSILFGNDCERSKHLDLVMLVTEVIAYSHCCMNPVIYAFVGERFRKYLRHFFHRHLLMHLGRYIPFLPSEKLERTSSVSPSTAEPELSIVF [CCR3]”, the “plasma membrane surface immunostaining intensity” value is reported as 391 ± 99.

Same assay, conditions: GPCR class: A (Olfactory)
In the case of “MTEFHLQSQMPSIRLIFRRLSLGRIKPSQSPRCSTSFMVVPSFSIAEHWRRMKGANLSQGMEFELLGLTTDPQLQRLLFVVFLGMYTATLLGNLVMFLLIHVSATLHTPMYSLLKSLSFLDFCYSSTVVPQTLVNFLAKRKVISYFGCMTQMFFYAGFATSECYLIAAMAYDRYAAICNPLLYSTIMSPEVCASLIVGSYSAGFLNSLIHTGCIFSLKFCGAHVVTHFFCDGPPILSLSCVDTSLCEILLFIFAGFNLLSCTLTILISYFLILNTILKMSSAQGRFKAFSTCASHLTAICLFFGTTLFMYLRPRSSYSLTQDRTVAVIYTVVIPVLNPLMYSLRNKDVKKALIKVWGRKTME [OR5AU1]”, the “plasma membrane surface immunostaining intensity” value is reported as 419 ± 110. “MTILLNSSLQRATFFLTGFQGLEGLHGWISIPFCFIYLTVILGNLTILHVICTDATLHGPMYYFLGMLAVTDLGLCLSTLPTVLGIFWFDTREIGIPACFTQLFFIHTLSSMESSVLLSMSIDRYVAVCNPLHDSTVLTPACIVKMGLSSVLRSALLILPLPFLLKRFQYCHSHVLAHAYCLHLEIMKLACSSIIVNHIYGLFVVACTVGVDSLLIFLSYALILRTVLSIASHQERLRALNTCVSHICAVLLFYIPMIGLSLVHRFGEHLPRVVHLFMSYVYLLVPPLMNPIIYSIKTKQIRQRIIKKFQFIKSLRCFWKD [OR51G1]” was tested, and the “plasma membrane surface immunostaining intensity” value was 116 ± 20. For “MTNQTQMMEFLLVRFTENWVLLRLHALLFSLIYLTAVLMNLVIILLMILDHRLHMAMYFFLRHLSFLDLCLISATVPKSILNSVASTDSISFLGCVLQLFLVVLLAGSEIGILTAMSYDRYAAICCPLHCEAVMSRGLCVQLMALSWLNRGALGLLYTAGTFSLNFYGSDELHQFFCDVPALLKLTCSKEHAIISVSVAIGVCYAFSCLVCIVVSYVYIFSAVLRISQRQRQSKAFSNCVPHLIVVTVFLVTGAVAYLKPGSDAPSILDLLVSVFYSVAPPTLNPVIYCLKNKDIKSALSKVLWNVRSSGVMKR [OR14K1]”, the “plasma membrane surface immunostaining intensity” value was 155 ± 35. “MTRKNYTSLTEFVLLGLADTLELQIILFLFFLVIYTLTVLGNLGMILLIRIDSQLHTPMYFFLANLSFVDVCNSTTITPKMLADLLSEKKTISFAGCFLQMYFFISLATTECILFGLMAYDRYAAICRPLLYSLIMSRTVYLKMAAGAFAAGLLNFMVNTSHVSSLSFCDSNVIHHFFCDSPPLFKLSCSDTILKESISSILAGVNIVGTLLVILSSYSYVLFSIFSMHSGEGRHRAFSTCASHLTAIILFYATCIYTYLRPSSSYSLNQDKVASVFYTVVIPMLNPLIYSLRSKEVKKALANVISRKRTSSFL [OR5F1]” was tested, and the “plasma membrane surface immunostaining intensity” value was 192 ± 87.

Same assay, conditions: GPCR class: B
“MTTSPILQLLLRLSLCGLLLQRAETGSKGQTAGELYQRWERYRRECQETLAAAEPPSGLACNGSFDMYVCWDYAAPNATARASCPWYLPWHHHVAAGFVLRQCGSDGQWGLWRDHTQCENPEKNEAFLDQRLILERLQVMYTVGYSLSLATLLLALLILSLFRRLHCTRNYIHINLFTSFMLRAAAILSRDRLLPRPGPYLGDQALALWNQALAACRTAQIVTQYCVGANYTWLLVEGVYLHSLLVLVGGSEEGHFRYYLLLGWGAPALFVIPWVIVRYLYENTQCWERNEVKAIWWIIRTPILMTILINFLIFIRILGILLSKLRTRQMRCRDYRLRLARSTLTLVPLLGVHEVVFAPVTEEQARGALRFAKLGFEIFLSSFQGFLVSVLYCFINKEVQSEIRRGWHHCRLRRSLGEEQRQLPERAFRALPSGSGPGEVPTSRGLSSGTLPGPGNEASRELESYC [GIPR]” was tested, and the “plasma membrane surface immunostaining intensity” value was 6435 ± 30.
